Results as given in patent US20090092971.

Target: active RhoA, P61586
Sequence (P61586 1-190): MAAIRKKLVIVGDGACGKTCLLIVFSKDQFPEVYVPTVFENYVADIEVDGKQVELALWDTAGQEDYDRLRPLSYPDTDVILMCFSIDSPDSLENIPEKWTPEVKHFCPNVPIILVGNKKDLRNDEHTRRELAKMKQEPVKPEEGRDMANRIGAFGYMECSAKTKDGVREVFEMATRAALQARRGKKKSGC

B1: GEF-H1 (Rho guanine nucleotide exchange factor H1) (protein)
chain: MKEAKDARYTNGHLFTTISVSGMTMCYACNKSITAKEALICPTCNVTIHNRCKDTLANCTKVKQKQQKAALLKNNTALQSVSLRSKTTIRERPSSAIYPSDSFRQSLLGSRRGRSSLSLAKSVSTTNIAGHFNDESPLGLRRILSQSTDSLNMRNRTLSVESLIDEEVIYSELMSDFEMDEKDFAADSWSLAVDSSFLQQHKKEVMKQQDVIYELIQTELHHVRTLKIMTRLFRTGMLEELHLEPGVVQGLFPCVDELSDIHTRFLSQLLERRRQALCPGSTRNFVIHRLGDLLISQFSGPSAEQMCKTYSEFCSRHSKALKLYKELYARDKRFQQFIRKVTRPAVLKRHGVQECILLVTQRITKYPLLISRILQHSHGIEEERQDLTTALGLVKELLSNVDEGIYQLEKGARLQEIYNRMDPRAQTPVPGKGPFGREELLRRKLIHDGCLLWKTATGRFKDVLVLLMTDVLVFLQEKDQKYIFPTLDKPSVVSLQNLIVRDIANQEKGMFLISAAPPEMYEVHTASRDDRSTWIRVIQQSVRTCPSREDFPLIETEDEAYLRRIKMELQQKDRALVELLREKVGLFAEMTHFQAEEDGGSGMALPTLPRGLFRSESLESPRGERLLQDAIREVEGLKDLLVGPGVELLLTPREPALPLEPDSGGNTSPGVTANGEARTFNGSIELCRADSDSSQRDRNGNQLRSPQEEALQRLVNLYGLLHGLQAAVAQQDTLMEARFPEGPERREKLCRANSRDGEAGRAGAAPVAPEKQATELALLQRQHALLQEELRRCRRLGEERATEAGSLEARLRESEQARALLEREAEEARRQLAALGQTEPLPAEAPWARRPVDPRRRSLPAGDALYLSFNPPQPSRGTDRLDLPVTTRSVHRNFEDRERQELGSPEERLQDSSDPDTGSEEEGSSRLSPPHSPRDFTRMQDIPEETESRDGEAVASES
RhoA activity (active RhoA pulled down with GST-Rhotekin-RBD, western blot): the RhoA activity increased by at least 5 times
